Measured values as given in article PMC10615762.

Molecular target: Fusion protein of Nipah virus (F-clamp) (Nipah virus)
Assay: SEC

Fusion protein of Nipah virus (F-clamp)
stoichiometry N: 3
